In patent US20140221271A1:
Where two headings read alike, the source gives them in different places.

Columns and labels:
Kv1.3 K+ ion channel [1] = experiment: cell-based or functional assay
Kv1.3 K+ ion channel [2] = experiment: cell-based or functional assay; remark: listed apart in the source

ShK-186 ((phospho-Tyr)-AEEA-ShK-NH2) (peptide)
IC50, reduction in peak whole-cell Kv1.3 current at 40 mV (patch-clamp) (Kv1.3 K+ ion channel [1]): 0.069 nM

RSCIDTIPKSRCTAFQCKHSMKYRLSFCRKTCGTC (modifications not checked) [ShK-221-gadolinium (DOTA-conjugate of ShK-198 coordinated with gadolinium)]
IC50, reduction in peak whole-cell Kv1.3 current at 40 mV (patch-clamp) (Kv1.3 K+ ion channel [2]): 0.0582 nM

RSCIDTIPKSRCTAFQCKHSMKYRLSFCRKTCGTC (modifications not checked) [ShK-221-indium (DOTA-conjugate of ShK-198 coordinated with indium)]
IC50, reduction in peak whole-cell Kv1.3 current at 40 mV (patch-clamp) (Kv1.3 K+ ion channel [2]): 0.0638 nM
